In PMC4613674:

Biological target: MBP–Cas5–Cas7 complex (Methanothermobacter thermautotrophicus) (Methanothermobacter thermautotrophicus ΔH)
Assay: pull-down; MBP–Cas5–Cas7 (20 μg) held on amylose resin, His6–Cas8′ (20 μg) added, final volume 500 μl, 2–4 h at 4°C; 20 mM Tris/HCl pH 8.0, 150 mM NaCl, 1 mM EDTA, 1% Tween; western blots with anti-His6 and anti-MBP; with or without pre-incubation of Cas5–Cas7 with crRNA1

- percent of input bound: < 10%
Substance: N-terminal hexahistidine-tagged Mth Cas8′ (natural protein)
